Kd data for one sequence are collected here from publication PMC11253607, “A conserved inhibitory interdomain interaction regulates DNA-binding activities of hybrid two-component systems in Bacteroides” (mBio, 2024).

The target of data set [1] is T1, BT4663-RRAG C1174A;H1175G (Bacteroides thetaiotaomicron VPI 5482) (UniProt Q89YR8).
T1 sequence: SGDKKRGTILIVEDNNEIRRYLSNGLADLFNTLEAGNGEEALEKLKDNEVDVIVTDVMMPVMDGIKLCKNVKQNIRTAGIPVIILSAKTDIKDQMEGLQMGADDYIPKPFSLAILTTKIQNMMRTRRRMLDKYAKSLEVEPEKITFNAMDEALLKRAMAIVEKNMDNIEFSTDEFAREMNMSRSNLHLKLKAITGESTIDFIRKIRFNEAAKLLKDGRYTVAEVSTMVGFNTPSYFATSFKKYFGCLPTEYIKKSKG
Nature of the data set: EMSA. As to conditions: 50 mM Tris pH 7.6, 200 mM NaCl, 2.5% glycerol, 2 mM MgCl2, 0.5 mM DTT, 0.1 ug/uL BSA, 10 ng/uL salmon sperm DNA, ~2.5 ng/uL DNA; 30 min, temperature not …. In general terms: In EMSA bound probe runs differently from free probe, usually more slowly.

Data set [2] addresses T2, BT4663-RRAD C1174A;H1175D (Bacteroides thetaiotaomicron VPI 5482) (UniProt Q89YR8).
T2 sequence: T1 sequence with G79D
Nature of the data set: EMSA. As to conditions: 50 mM Tris pH 7.6, 200 mM NaCl, 2.5% glycerol, 2 mM MgCl2, 0.5 mM DTT, 0.1 ug/uL BSA, 10 ng/uL salmon sperm DNA, ~2.5 ng/uL DNA; 30 min, temperature not ….

Where a chain is given by its changes, count along the chain named.

A word on the Kd: it is a measure of binding affinity in units of concentration. The low end stands for tighter binding, the high end for weaker binding. For “GATGGTAGTGTGGGGTCTCATGCCTAGGATACAGGAGATAAACAGCTTTTTTAAACAAAAACAACATATGTCTCAACAAATTTGATATCAAAAAAATCATTTTTGAACAAAGTATGAACAACCTAAATTAAAGAATCTAATTAATGAGGTTACATTTGCAACAGTAAAATAACACTTTTAATAATTATAAAACCTAATAAAGTATGAAGAACGAGACCGAAATTCAATAAGGAGG (double strand) [bt4662 promoter fragment]”, the Kd in data set [1] and in data set [2] was 0.9 µM each time.
